Values after ≈ are worked out from the molar mass of the structure shown. Where two headings read alike, the source gives them in different places.
What was measured:
[1] = cited from earlier work
[2] = cited from earlier work; remark: listed apart in the source
[3] = Circular dichroism analysis of released protein; format: physicochemical; details: protein released from O-LA-SG into PBS, sample at day 40
Description: At day 40 a sample of the PBS solution was tested be circular dichroism CD analysis to monitor for any changes in protein structure.

[4] = Isoelectric focusing (IEF) of ovalbumin during processing; format: physicochemical
Description: Samples of O-LA were prepared as in Example 5. Samples at each step of the process were collected and analyzed by Isoelectric focusing (IEF) which measures the isoelectric point (pI) of the protein. A shift in pI of more than 0.2 is indicative of a single deamidation reaction. All samples had pI values that indicated no deamidation had occurred. The same samples were analyzed by ELISA. The ELISA tests indicated no denaturation of the epitope had occurred.

[5] = 1-octanol/water (pH 7.4; buffer solution)

**Q.** For `CCCCCCCCCC(=O)O` [decanoic], which “log P” value ([1]; pH 7.4) is on record?
**A.** Its value is 3.75.

**Q.** For `CCCCCCCCCCCC(=O)O` [dodecanoic], which Methyl ester solubility ([2]; value is for the methyl ester of the acid named in the row) is on record?
**A.** Its Methyl ester solubility is 4.8 µg/mL.

**Q.** And the “Solubility in water at 20° C.” value [2]?
**A.** The value was 55 µg/mL (≈ 275 µM).

**Q.** And the “log P” value [1, 5]?
**A.** The value was 4.77.

**Q.** Which “log P” value [1, 5] does the source give for `CCCCCCCCCCCCCCCC(=O)OC` [methyl palmitate] here?
**A.** Its value is 7.41.

**Q.** For `CCCCCCCCCCCCCCCCCC(=O)OC` [methyl stearate], which “log P” value [1, 5] is on record?
**A.** Its value is 8.43.

**Q.** For `CCCCCCCCCCCCCC(=O)O` [tetradecanoic], which “Solubility in water at 20° C.” value [2] is on record?
**A.** Its value is 20 µg/mL (≈ 87.6 µM).

B1: ovalbumin: protein albumin used to model a water soluble therapeutic agent protein (protein, UniProt P01012 2-386, looked up)
Ovalbumin: GSIGAASMEFCFDVFKELKVHHANENIFYCPIAIMSALAMVYLGAKDSTRTQINKVVRFDKLPGFGDSIEAQCGTSVNVHSSLRDILNQITKPNDVYSFSLASRLYAEERYPILPEYLQCVKELYRGGLEPINFQTAADQARELINSWVESQTNGIIRNVLQPSSVDSQTAMVLVNAIVFKGLWEKAFKDEDTQAMPFRVTEQESKPVQMMYQIGLFRVASMASEKMKILELPFASGTMSMLVLLPDEVSGLEQLESIINFEKLTEWTSSNVMEERKIKVYLPRMKMEEKYNLTSVLMAMGITDVFSSSANLSGISSAESLKISQAVHAAHAEINEAGREVVGSAEAGVDAASVSEEFRADHPFLFCIKHIATNAVLFFGRCVSP
**Q.** Which “change in protein structure by circular dichroism” value [3] does the source give for B1 here?
**A.** Its value is “no wavelength shift”.

B2: Albumin powder: ovalbumin powder, process sample before grinding (protein, UniProt P01012 2-386, looked up)
Ovalbumin: B1 Ovalbumin
modifications: powder
notes: ovalbumin powder, process sample before grinding
**Q.** With B2 as the molecule, how does the “IEF data Ovalbumin A1 %” value ([4]; Sample 1) read?
**A.** Its value is 80.9%.

**Q.** What about the “IEF data Ovalbumin A1 pI” value ([4]; Sample 1) of the same molecule?
**A.** Its value is 5.10.

**Q.** What about the “IEF data Ovalbumin A2 + A3 %” value ([4]; Sample 1) of the same molecule?
**A.** The value was 19.1%.

**Q.** What about the “IEF data Ovalbumin A2 + A3 pI” value ([4]; Sample 1) of the same molecule?
**A.** Its value is 5.14.

**Q.** What about the “IEF data Ovalbumin A1 %” value ([4]; Sample 2) of the same molecule?
**A.** The value was 82.2%.

**Q.** And the “IEF data Ovalbumin A1 pI” value ([4]; Sample 2)?
**A.** Its value is 5.09.

**Q.** What about the “IEF data Ovalbumin A2 + A3 %” value ([4]; Sample 2) of the same molecule?
**A.** Its value is 17.8%.

**Q.** And the “IEF data Ovalbumin A2 + A3 pI” value ([4]; Sample 2)?
**A.** The value was 5.14.

B3: Ground Albumin powder: ovalbumin ground to a fine powder, process sample (protein, UniProt P01012 2-386, looked up)
Ovalbumin: B1 Ovalbumin
modifications: ground powder
notes: ovalbumin ground to a fine powder, process sample
**Q.** What does the source list for B3?
**A.** IEF data Ovalbumin A1 % ([4]; Sample 1): 81.7%; IEF data Ovalbumin A1 pI ([4]; Sample 1): 5.10; IEF data Ovalbumin A2 + A3 % ([4]; Sample 1): 18.3%; IEF data Ovalbumin A2 + A3 pI ([4]; Sample 1): 5.15; IEF data Ovalbumin A1 % ([4]; Sample 2): 81.2%; IEF data Ovalbumin A1 pI ([4]; Sample 2): 5.11; IEF data Ovalbumin A2 + A3 % ([4]; Sample 2): 18.8%; IEF data Ovalbumin A2 + A3 pI ([4]; Sample 2): 5.15
